Laboratory results taken from IntAct's records for PubMed 12446441.

B1: Ras-related protein Rab-27A (Homo sapiens), P51159-1 (parent)
chain: MSDGDYDYLIKFLALGDSGVGKTSVLYQYTDGKFNSKFITTVGIDFREKRVVYRASGPDGATGRGQRIHLQLWDTAGQERFRSLTTAFFRDAMGFLLLFDLTNEQSFLNVRNWISQLQMHAYCENPDIVLCGNKSDLEDQRVVKEEEAIALAEKYGIPYFETSAANGTNISQAIEMLLDLIMKRMERCVDKSWIPEGVVRSNGHASTDQLSEEKEKGACGC
partner: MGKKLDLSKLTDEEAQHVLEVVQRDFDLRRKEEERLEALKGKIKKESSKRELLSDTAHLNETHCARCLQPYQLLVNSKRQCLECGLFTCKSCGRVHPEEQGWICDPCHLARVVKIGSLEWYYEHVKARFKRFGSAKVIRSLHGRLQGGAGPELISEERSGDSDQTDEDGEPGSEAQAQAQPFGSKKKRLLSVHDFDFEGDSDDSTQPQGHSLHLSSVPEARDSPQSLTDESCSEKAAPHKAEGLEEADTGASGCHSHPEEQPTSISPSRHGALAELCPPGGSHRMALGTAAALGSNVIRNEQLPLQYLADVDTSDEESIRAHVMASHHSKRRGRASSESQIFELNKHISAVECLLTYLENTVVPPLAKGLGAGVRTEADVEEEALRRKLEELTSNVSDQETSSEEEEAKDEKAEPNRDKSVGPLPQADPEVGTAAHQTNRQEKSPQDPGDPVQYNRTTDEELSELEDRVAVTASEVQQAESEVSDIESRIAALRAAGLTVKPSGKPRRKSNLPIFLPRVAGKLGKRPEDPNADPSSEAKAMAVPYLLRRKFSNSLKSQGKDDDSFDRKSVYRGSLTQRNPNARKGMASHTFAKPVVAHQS

Variants of: B1
Conditions: with melph_human MLPH

effect of a mutation on the interaction	Variant
disrupting interaction strength	T23N

Variants of: B1
Conditions: with melph_human MLPH
Remark: another data set of the same source

effect of a mutation on the interaction	Variant
disrupting interaction strength	W73G
disrupting interaction strength	W73S
disrupting interaction strength	W73L
